Reference: article PMC4893818, “Folliculin directs the formation of a Rab34–RILP complex to control the nutrient‐dependent dynamic distribution of lysosomes” (EMBO Reports, 2016)
Where a chain is given by its changes, count along the chain named. Names may count otherwise. Each block holds one binder with its values, some of them ahead of it.

Key:
GST-RILP (full ORF) [1] = target: T1, GST-RILP (full ORF) (human, UniProt Q96NA2 1-401); assay: pull-down; GST-RILP or GST on beads, His-FLCN-DENN in E. coli extract; Western blot; conditions: one partner purified
T1 construct: also called GST-RILP resin; source: E. coli BL21(DE3), purified (glutathione beads, eluted with glutathione, dialysed); not shown: GST, N-terminal, kept
T1 sequence (looked up): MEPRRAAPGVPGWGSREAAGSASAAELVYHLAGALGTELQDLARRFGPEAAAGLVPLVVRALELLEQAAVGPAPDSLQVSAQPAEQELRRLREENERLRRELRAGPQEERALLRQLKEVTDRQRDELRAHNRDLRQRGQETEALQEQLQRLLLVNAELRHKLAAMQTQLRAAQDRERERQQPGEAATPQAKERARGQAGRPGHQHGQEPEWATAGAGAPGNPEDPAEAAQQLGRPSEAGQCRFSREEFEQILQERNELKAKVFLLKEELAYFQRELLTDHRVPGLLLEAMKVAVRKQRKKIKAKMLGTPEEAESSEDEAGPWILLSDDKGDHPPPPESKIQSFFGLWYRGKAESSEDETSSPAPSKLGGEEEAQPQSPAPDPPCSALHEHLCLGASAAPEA

GST-RILP (full ORF) [2] = target: T1, GST-RILP (full ORF); assay: pull-down; purified proteins: 0.2 nmol GST-RILP on glutathione beads; Rab34 proteins at 200 nM together with FLCN-DENN (1 uM; titrated 0 to 10 uM; 0.5 uM for wild-type Rab34); HEPES pH 7.5, 250 mM NaCl, 2 mM MgCl2, 1 mM GDP or GTPγS; 14 h at 4 °C; anti-His Western blot; conditions: both partners purified
GST-RILP (full ORF) [3] = target: T1, GST-RILP (full ORF); assay: pull-down; 0.1 nmol GST-RILP prebound to glutathione beads, lysate of HeLa cells in normal growth or starved 4 h; 25 mM HEPES pH 7.5, 150 mM NaCl, 2 mM MgCl2, 0.2% NP-40, 0.2% Triton X-100; Western blot; conditions: one partner purified

binding result (GST-RILP (full ORF) [1]): binds
B1: His-tagged human FLCN-DENN domain (amino acids 341-556) (domain or fragment, UniProt Q8NFG4 341-556, looked up)
chain: RKLPVFKSLRHMRQVLGAPSFRMLAWHVLMGNQVIWKSRDVDLVQSAFEVLRTMLPVGCVRIIPYSSQYEEAYRCNFLGLSPHVQIPPHVLSSEFAVIVEVHAAARSTLHPVGCEDDQSLSKYEFVVTSGSPVAADRVGPTILNKIEAALTNQNLSVDVVDQCLVCLKEEWMNKVKVLFKFTKVDSRPKEDTQKLLSILGASEEDNVKLLKFWMTG
notes: folliculin (FLCN), human, C-terminal DENN domain, amino acids 341-556, in pET28 His-thrombin; vector pET28 His-thrombin; detected by an anti-His antibody; also called His-FLCN-DENN; source: E. coli, purified (His-trap FF, imidazole gradient)

binding result (GST-RILP (full ORF) [2]): binds
B2: His-tagged Rab34 WT (natural protein, mouse, UniProt Q64008 1-259, looked up)
chain: MNILAPVRRDRVLAELPQCLKKEAALHVRKDFHPRVTCACQEHRTGTVGFKISKVIVVGDLSVGKTCLINRFCKDTFDKNYKATIGVDFEMERFEVLGVPFSLQLWDTAGQERFKCIASTYYRGAQAIIIVFNLNDVASLEHTKQWLTDALKENDPSNVLLFLVGSKKDLSTPAQYSLMEKDALKVAQEIKAEYWAVSSLTGENVREFFFRVAALTFEANVLADVEKSGARHIADVVRINSDDKNLYLTASKKKATCCP
notes: Rab34, mouse, from an I.M.A.G.E. clone, in pET28 His-thrombin; loaded with GTPγS or GDP before the pull-down; also called wild-type Rab34; purified Rab34; source: E. coli, purified (His-trap FF, imidazole gradient)

fold enhancement of binding to RILP in the presence of FLCN-DENN (1 uM) against without it (GST-RILP (full ORF) [2]): ~2.7 fold
B3: His-tagged Rab34 Q111L (natural protein, mouse, UniProt Q64008 1-259, looked up)
chain: B2 chain with Q111L
notes: Rab34, mouse, from an I.M.A.G.E. clone, in pET28 His-thrombin; assayed in the presence of 1 mM GTPγS; also called GTP hydrolysis-deficient (Q111L) Rab34; source: E. coli, purified (His-trap FF, imidazole gradient)

fold increase of Rab34 retained on GST-RILP, starved against normal growth (GST-RILP (full ORF) [3]): ~2 fold
B4: endogenous Rab34 (natural protein, UniProt Q9BZG1 1-259, looked up)
chain: MNILAPVRRDRVLAELPQCLRKEAALHGHKDFHPRVTCACQEHRTGTVGFKISKVIVVGDLSVGKTCLINRFCKDTFDKNYKATIGVDFEMERFEVLGIPFSLQLWDTAGQERFKCIASTYYRGAQAIIIVFNLNDVASLEHTKQWLADALKENDPSSVLLFLVGSKKDLSTPAQYALMEKDALQVAQEMKAEYWAVSSLTGENVREFFFRVAALTFEANVLAELEKSGARRIGDVVRINSDDSNLYLTASKKKPTCCP
notes: Rab34 small GTPase, endogenous in human cell lines; source: endogenous, HeLa lysate; endogenous, lysates of UOK257, UOK257-2, UOK257-FLCN and UOK257-FLCNΔDENN cells
